PMC3539133

Molecular target: T1, dADAR dsRBD1 (UniProt Q9NII1 48-140)
T1 sequence: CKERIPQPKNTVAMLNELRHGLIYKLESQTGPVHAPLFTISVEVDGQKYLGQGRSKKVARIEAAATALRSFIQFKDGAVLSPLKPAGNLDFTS
Test: ITC

## GGUAGUAUAACAAUAUCCGUGUUGUUAUAGUACC (structured_RNA) [GluR-2 R/G upper stem-loop (GluR-2 USL) with GluR-3 tetraloop]
  Kd: 400 ± 50 nM
